The record followed here is paper PMC3438196.

B1: Apobec3G-GFP MAPPIT bait (pCEL-Apobec3G-GFP), Q9HC16 Y59N (protein)
chain: MKPHFRNTVERMYRDTFSYNFYNRPILSRRNTVWLCYEVKTKGPSRPPLDAKIFRGQVNSELKYHPEMRFFHWFSKWRKLHRDQEYEVTWYISWSPCTKCTRDMATFLAEDPKVTLTIFVARLYYFWDPDYQEALRSLCQKRDGPRATMKIMNYDEFQHCWSKFVYSQRELFEPWNNLPKYYILLHIMLGEILRHSMDPPTFTFNFNNEPWVRGRHETYLCYEVERMHNDTWVLLNQRRGFLCNQAPHKHGFLEGRHAELCFLDVIPFWKLDLDQDYRVTCFTSWSPCFSCAQEMAKFISKNKHVSLCIFTARIYDDQGRCQEGLRTLAEAGAKISIMTYSEFKHCWDTFVDHQGCPFQPWDGLDEHSQDLSGRLRAILQNQEN
B2: Apobec3G-GFP MAPPIT bait (pCEL-Apobec3G-GFP), Q9HC16 R136S (protein)
chain: MKPHFRNTVERMYRDTFSYNFYNRPILSRRNTVWLCYEVKTKGPSRPPLDAKIFRGQVYSELKYHPEMRFFHWFSKWRKLHRDQEYEVTWYISWSPCTKCTRDMATFLAEDPKVTLTIFVARLYYFWDPDYQEALSSLCQKRDGPRATMKIMNYDEFQHCWSKFVYSQRELFEPWNNLPKYYILLHIMLGEILRHSMDPPTFTFNFNNEPWVRGRHETYLCYEVERMHNDTWVLLNQRRGFLCNQAPHKHGFLEGRHAELCFLDVIPFWKLDLDQDYRVTCFTSWSPCFSCAQEMAKFISKNKHVSLCIFTARIYDDQGRCQEGLRTLAEAGAKISIMTYSEFKHCWDTFVDHQGCPFQPWDGLDEHSQDLSGRLRAILQNQEN
B3: Apobec3G-GFP MAPPIT bait (pCEL-Apobec3G-GFP), Q9HC16 W94R (protein)
chain: MKPHFRNTVERMYRDTFSYNFYNRPILSRRNTVWLCYEVKTKGPSRPPLDAKIFRGQVYSELKYHPEMRFFHWFSKWRKLHRDQEYEVTWYISRSPCTKCTRDMATFLAEDPKVTLTIFVARLYYFWDPDYQEALRSLCQKRDGPRATMKIMNYDEFQHCWSKFVYSQRELFEPWNNLPKYYILLHIMLGEILRHSMDPPTFTFNFNNEPWVRGRHETYLCYEVERMHNDTWVLLNQRRGFLCNQAPHKHGFLEGRHAELCFLDVIPFWKLDLDQDYRVTCFTSWSPCFSCAQEMAKFISKNKHVSLCIFTARIYDDQGRCQEGLRTLAEAGAKISIMTYSEFKHCWDTFVDHQGCPFQPWDGLDEHSQDLSGRLRAILQNQEN
B4: Apobec3G-GFP MAPPIT bait (pCEL-Apobec3G-GFP), Q9HC16 D130Y (protein)
chain: MKPHFRNTVERMYRDTFSYNFYNRPILSRRNTVWLCYEVKTKGPSRPPLDAKIFRGQVYSELKYHPEMRFFHWFSKWRKLHRDQEYEVTWYISWSPCTKCTRDMATFLAEDPKVTLTIFVARLYYFWDPYYQEALRSLCQKRDGPRATMKIMNYDEFQHCWSKFVYSQRELFEPWNNLPKYYILLHIMLGEILRHSMDPPTFTFNFNNEPWVRGRHETYLCYEVERMHNDTWVLLNQRRGFLCNQAPHKHGFLEGRHAELCFLDVIPFWKLDLDQDYRVTCFTSWSPCFSCAQEMAKFISKNKHVSLCIFTARIYDDQGRCQEGLRTLAEAGAKISIMTYSEFKHCWDTFVDHQGCPFQPWDGLDEHSQDLSGRLRAILQNQEN
B5: Apobec3G-GFP MAPPIT bait (pCEL-Apobec3G-GFP), Q9HC16 V265M (protein)
chain: MKPHFRNTVERMYRDTFSYNFYNRPILSRRNTVWLCYEVKTKGPSRPPLDAKIFRGQVYSELKYHPEMRFFHWFSKWRKLHRDQEYEVTWYISWSPCTKCTRDMATFLAEDPKVTLTIFVARLYYFWDPDYQEALRSLCQKRDGPRATMKIMNYDEFQHCWSKFVYSQRELFEPWNNLPKYYILLHIMLGEILRHSMDPPTFTFNFNNEPWVRGRHETYLCYEVERMHNDTWVLLNQRRGFLCNQAPHKHGFLEGRHAELCFLDMIPFWKLDLDQDYRVTCFTSWSPCFSCAQEMAKFISKNKHVSLCIFTARIYDDQGRCQEGLRTLAEAGAKISIMTYSEFKHCWDTFVDHQGCPFQPWDGLDEHSQDLSGRLRAILQNQEN
B6: Apobec3G-GFP MAPPIT bait (pCEL-Apobec3G-GFP), Q9HC16 W127R (protein)
chain: MKPHFRNTVERMYRDTFSYNFYNRPILSRRNTVWLCYEVKTKGPSRPPLDAKIFRGQVYSELKYHPEMRFFHWFSKWRKLHRDQEYEVTWYISWSPCTKCTRDMATFLAEDPKVTLTIFVARLYYFRDPDYQEALRSLCQKRDGPRATMKIMNYDEFQHCWSKFVYSQRELFEPWNNLPKYYILLHIMLGEILRHSMDPPTFTFNFNNEPWVRGRHETYLCYEVERMHNDTWVLLNQRRGFLCNQAPHKHGFLEGRHAELCFLDVIPFWKLDLDQDYRVTCFTSWSPCFSCAQEMAKFISKNKHVSLCIFTARIYDDQGRCQEGLRTLAEAGAKISIMTYSEFKHCWDTFVDHQGCPFQPWDGLDEHSQDLSGRLRAILQNQEN
B7: Apobec3G-GFP MAPPIT bait (pCEL-Apobec3G-GFP), Q9HC16 E191V (protein)
chain: MKPHFRNTVERMYRDTFSYNFYNRPILSRRNTVWLCYEVKTKGPSRPPLDAKIFRGQVYSELKYHPEMRFFHWFSKWRKLHRDQEYEVTWYISWSPCTKCTRDMATFLAEDPKVTLTIFVARLYYFWDPDYQEALRSLCQKRDGPRATMKIMNYDEFQHCWSKFVYSQRELFEPWNNLPKYYILLHIMLGVILRHSMDPPTFTFNFNNEPWVRGRHETYLCYEVERMHNDTWVLLNQRRGFLCNQAPHKHGFLEGRHAELCFLDVIPFWKLDLDQDYRVTCFTSWSPCFSCAQEMAKFISKNKHVSLCIFTARIYDDQGRCQEGLRTLAEAGAKISIMTYSEFKHCWDTFVDHQGCPFQPWDGLDEHSQDLSGRLRAILQNQEN
B8: Apobec3G-GFP MAPPIT bait (pCEL-Apobec3G-GFP), Q9HC16 K270E (protein)
chain: MKPHFRNTVERMYRDTFSYNFYNRPILSRRNTVWLCYEVKTKGPSRPPLDAKIFRGQVYSELKYHPEMRFFHWFSKWRKLHRDQEYEVTWYISWSPCTKCTRDMATFLAEDPKVTLTIFVARLYYFWDPDYQEALRSLCQKRDGPRATMKIMNYDEFQHCWSKFVYSQRELFEPWNNLPKYYILLHIMLGEILRHSMDPPTFTFNFNNEPWVRGRHETYLCYEVERMHNDTWVLLNQRRGFLCNQAPHKHGFLEGRHAELCFLDVIPFWELDLDQDYRVTCFTSWSPCFSCAQEMAKFISKNKHVSLCIFTARIYDDQGRCQEGLRTLAEAGAKISIMTYSEFKHCWDTFVDHQGCPFQPWDGLDEHSQDLSGRLRAILQNQEN
B9: Apobec3G-GFP MAPPIT bait (pCEL-Apobec3G-GFP), Q9HC16 R24G (protein)
chain: MKPHFRNTVERMYRDTFSYNFYNGPILSRRNTVWLCYEVKTKGPSRPPLDAKIFRGQVYSELKYHPEMRFFHWFSKWRKLHRDQEYEVTWYISWSPCTKCTRDMATFLAEDPKVTLTIFVARLYYFWDPDYQEALRSLCQKRDGPRATMKIMNYDEFQHCWSKFVYSQRELFEPWNNLPKYYILLHIMLGEILRHSMDPPTFTFNFNNEPWVRGRHETYLCYEVERMHNDTWVLLNQRRGFLCNQAPHKHGFLEGRHAELCFLDVIPFWKLDLDQDYRVTCFTSWSPCFSCAQEMAKFISKNKHVSLCIFTARIYDDQGRCQEGLRTLAEAGAKISIMTYSEFKHCWDTFVDHQGCPFQPWDGLDEHSQDLSGRLRAILQNQEN
B10: Apobec3G-GFP MAPPIT bait (pCEL-Apobec3G-GFP), Q9HC16 F157I (protein)
chain: MKPHFRNTVERMYRDTFSYNFYNRPILSRRNTVWLCYEVKTKGPSRPPLDAKIFRGQVYSELKYHPEMRFFHWFSKWRKLHRDQEYEVTWYISWSPCTKCTRDMATFLAEDPKVTLTIFVARLYYFWDPDYQEALRSLCQKRDGPRATMKIMNYDEIQHCWSKFVYSQRELFEPWNNLPKYYILLHIMLGEILRHSMDPPTFTFNFNNEPWVRGRHETYLCYEVERMHNDTWVLLNQRRGFLCNQAPHKHGFLEGRHAELCFLDVIPFWKLDLDQDYRVTCFTSWSPCFSCAQEMAKFISKNKHVSLCIFTARIYDDQGRCQEGLRTLAEAGAKISIMTYSEFKHCWDTFVDHQGCPFQPWDGLDEHSQDLSGRLRAILQNQEN
B11: Apobec3G-GFP MAPPIT bait (pCEL-Apobec3G-GFP), Q9HC16 R238C (protein)
chain: MKPHFRNTVERMYRDTFSYNFYNRPILSRRNTVWLCYEVKTKGPSRPPLDAKIFRGQVYSELKYHPEMRFFHWFSKWRKLHRDQEYEVTWYISWSPCTKCTRDMATFLAEDPKVTLTIFVARLYYFWDPDYQEALRSLCQKRDGPRATMKIMNYDEFQHCWSKFVYSQRELFEPWNNLPKYYILLHIMLGEILRHSMDPPTFTFNFNNEPWVRGRHETYLCYEVERMHNDTWVLLNQCRGFLCNQAPHKHGFLEGRHAELCFLDVIPFWKLDLDQDYRVTCFTSWSPCFSCAQEMAKFISKNKHVSLCIFTARIYDDQGRCQEGLRTLAEAGAKISIMTYSEFKHCWDTFVDHQGCPFQPWDGLDEHSQDLSGRLRAILQNQEN
B12: Apobec3G-GFP MAPPIT bait (pCEL-Apobec3G-GFP), Q9HC16 L27R (protein)
chain: MKPHFRNTVERMYRDTFSYNFYNRPIRSRRNTVWLCYEVKTKGPSRPPLDAKIFRGQVYSELKYHPEMRFFHWFSKWRKLHRDQEYEVTWYISWSPCTKCTRDMATFLAEDPKVTLTIFVARLYYFWDPDYQEALRSLCQKRDGPRATMKIMNYDEFQHCWSKFVYSQRELFEPWNNLPKYYILLHIMLGEILRHSMDPPTFTFNFNNEPWVRGRHETYLCYEVERMHNDTWVLLNQRRGFLCNQAPHKHGFLEGRHAELCFLDVIPFWKLDLDQDYRVTCFTSWSPCFSCAQEMAKFISKNKHVSLCIFTARIYDDQGRCQEGLRTLAEAGAKISIMTYSEFKHCWDTFVDHQGCPFQPWDGLDEHSQDLSGRLRAILQNQEN
B13: Apobec3G-GFP MAPPIT bait (pCEL-Apobec3G-GFP), Q9HC16 Y222N (protein)
chain: MKPHFRNTVERMYRDTFSYNFYNRPILSRRNTVWLCYEVKTKGPSRPPLDAKIFRGQVYSELKYHPEMRFFHWFSKWRKLHRDQEYEVTWYISWSPCTKCTRDMATFLAEDPKVTLTIFVARLYYFWDPDYQEALRSLCQKRDGPRATMKIMNYDEFQHCWSKFVYSQRELFEPWNNLPKYYILLHIMLGEILRHSMDPPTFTFNFNNEPWVRGRHETYLCNEVERMHNDTWVLLNQRRGFLCNQAPHKHGFLEGRHAELCFLDVIPFWKLDLDQDYRVTCFTSWSPCFSCAQEMAKFISKNKHVSLCIFTARIYDDQGRCQEGLRTLAEAGAKISIMTYSEFKHCWDTFVDHQGCPFQPWDGLDEHSQDLSGRLRAILQNQEN
B14: Apobec3G-GFP MAPPIT bait (pCEL-Apobec3G-GFP), Q9HC16 W175R (protein)
chain: MKPHFRNTVERMYRDTFSYNFYNRPILSRRNTVWLCYEVKTKGPSRPPLDAKIFRGQVYSELKYHPEMRFFHWFSKWRKLHRDQEYEVTWYISWSPCTKCTRDMATFLAEDPKVTLTIFVARLYYFWDPDYQEALRSLCQKRDGPRATMKIMNYDEFQHCWSKFVYSQRELFEPRNNLPKYYILLHIMLGEILRHSMDPPTFTFNFNNEPWVRGRHETYLCYEVERMHNDTWVLLNQRRGFLCNQAPHKHGFLEGRHAELCFLDVIPFWKLDLDQDYRVTCFTSWSPCFSCAQEMAKFISKNKHVSLCIFTARIYDDQGRCQEGLRTLAEAGAKISIMTYSEFKHCWDTFVDHQGCPFQPWDGLDEHSQDLSGRLRAILQNQEN

This test deals with codon optimized Vif SLQ144-146AAA MAPPIT prey (pMG2-VifoptSLQ), P12504. Briefly: MAPPIT. The note with it: chain shown with the change.
In the case of B1, the percent of parent is 18 % of WT.
Regarding B2, the percent of parent was 53 % of WT.
B3: the percent of parent was 27 % of WT.
On to B4, for which the percent of parent is 43 % of WT.
For the molecule B5, the percent of parent was 92 % of WT.
On to B6, for which the percent of parent was 16 % of WT.
For B7, the percent of parent is 41 % of WT.
Consider B8, for which the percent of parent is 58 % of WT.
With B9, the percent of parent was 32 % of WT.
Consider B10, for which the percent of parent was 39 % of WT.
On to B11, for which the percent of parent was 55 % of WT.
In the case of B12, the percent of parent was 26 % of WT.
On to B13, for which the percent of parent is 12 % of WT.
Take B14: the percent of parent was 20 % of WT.
